Experimental data: US20140087995A1 (published 2014)
Numbered stars: 1 amine (or outer) side, 2 acyl side, 3 side chain; on linkers, the order of the positions; unused ones are H or OH. Bridge positions count the residues as written; N and C are the ends. Side chains are listed from the residue outwards. Ends that are not written are not given here. * marks the point of attachment. C20 diacid = O=C(O)CCCCCCCCCCCCCCCCCCC(=O)*; γGlu = O=C(O)[C@H](CCC(=O)[*:2])N[*:1]

T1: human calcitonin receptor (human, UniProt P30988 25-474)
T1 construct: whole, on cells; also called hCTR; hCT
T1 sequence (looked up): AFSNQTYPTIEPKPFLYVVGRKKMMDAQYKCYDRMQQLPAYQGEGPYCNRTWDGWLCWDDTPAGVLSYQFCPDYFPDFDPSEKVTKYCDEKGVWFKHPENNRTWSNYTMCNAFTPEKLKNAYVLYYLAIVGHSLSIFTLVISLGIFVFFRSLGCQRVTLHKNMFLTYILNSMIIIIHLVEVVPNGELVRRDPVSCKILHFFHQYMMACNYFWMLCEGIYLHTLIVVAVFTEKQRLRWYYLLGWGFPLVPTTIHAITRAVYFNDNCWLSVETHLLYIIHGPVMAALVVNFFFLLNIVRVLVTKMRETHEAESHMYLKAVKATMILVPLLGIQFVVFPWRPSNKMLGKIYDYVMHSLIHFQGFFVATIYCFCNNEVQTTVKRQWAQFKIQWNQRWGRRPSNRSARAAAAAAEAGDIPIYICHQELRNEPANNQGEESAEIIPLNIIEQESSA

B1: N^ε1-[(4S)-4-carboxy-4-(19-carboxynonadecanoylamino)butanoyl]-[Arg17,Pro21,Pro27,Glu35]-h-amylin (peptide)
peptide: K([γGlu-C20 diacid])CNTATCATQRLANFLRHSSPNFGAIPSSTNVGSETY-NH2
modifications: disulfide 2-7; N-terminus assumed
SMILES: CC[C@H](C)[C@H](NC(=O)[C@H](C)NC(=O)CNC(=O)[C@H](Cc1ccccc1)NC(=O)[C@H](CC(N)=O)NC(=O)[C@@H]1CCCN1C(=O)[C@H](CO)NC(=O)[C@H](CO)NC(=O)[C@H](Cc1c[nH]cn1)NC(=O)[C@H](CCCNC(=N)N)NC(=O)[C@H](CC(C)C)NC(=O)[C@H](Cc1ccccc1)NC(=O)[C@H](CC(N)=O)NC(=O)[C@H](C)NC(=O)[C@H](CC(C)C)NC(=O)[C@H](CCCNC(=N)N)NC(=O)[C@H](CCC(N)=O)NC(=O)[C@@H](NC(=O)[C@H](C)NC(=O)[C@@H]1CSSC[C@H](NC(=O)[C@@H](N)CCCCNC(=O)CC[C@H](NC(=O)CCCCCCCCCCCCCCCCCCC(=O)O)C(=O)O)C(=O)N[C@@H](CC(N)=O)C(=O)N[C@@H]([C@@H](C)O)C(=O)N[C@@H](C)C(=O)N[C@@H]([C@@H](C)O)C(=O)N1)[C@@H](C)O)C(=O)N1CCC[C@H]1C(=O)N[C@@H](CO)C(=O)N[C@@H](CO)C(=O)N[C@H](C(=O)N[C@@H](CC(N)=O)C(=O)N[C@H](C(=O)NCC(=O)N[C@@H](CO)C(=O)N[C@@H](CCC(=O)O)C(=O)N[C@H](C(=O)N[C@@H](Cc1ccc(O)cc1)C(N)=O)[C@@H](C)O)C(C)C)[C@@H](C)O
notes: also called compound 27
B2: N^ε1-[(4S)-4-carboxy-4-(19-carboxynonadecanoylamino)butanoyl]-[Arg17,Pro21,Pro27,His35]-h-amylin (peptide)
peptide: K([γGlu-C20 diacid])CNTATCATQRLANFLRHSSPNFGAIPSSTNVGSHTY-NH2
modifications: disulfide 2-7; N-terminus assumed
SMILES: CC[C@H](C)[C@H](NC(=O)[C@H](C)NC(=O)CNC(=O)[C@H](Cc1ccccc1)NC(=O)[C@H](CC(N)=O)NC(=O)[C@@H]1CCCN1C(=O)[C@H](CO)NC(=O)[C@H](CO)NC(=O)[C@H](Cc1c[nH]cn1)NC(=O)[C@H](CCCNC(=N)N)NC(=O)[C@H](CC(C)C)NC(=O)[C@H](Cc1ccccc1)NC(=O)[C@H](CC(N)=O)NC(=O)[C@H](C)NC(=O)[C@H](CC(C)C)NC(=O)[C@H](CCCNC(=N)N)NC(=O)[C@H](CCC(N)=O)NC(=O)[C@@H](NC(=O)[C@H](C)NC(=O)[C@@H]1CSSC[C@H](NC(=O)[C@@H](N)CCCCNC(=O)CC[C@H](NC(=O)CCCCCCCCCCCCCCCCCCC(=O)O)C(=O)O)C(=O)N[C@@H](CC(N)=O)C(=O)N[C@@H]([C@@H](C)O)C(=O)N[C@@H](C)C(=O)N[C@@H]([C@@H](C)O)C(=O)N1)[C@@H](C)O)C(=O)N1CCC[C@H]1C(=O)N[C@@H](CO)C(=O)N[C@@H](CO)C(=O)N[C@H](C(=O)N[C@@H](CC(N)=O)C(=O)N[C@H](C(=O)NCC(=O)N[C@@H](CO)C(=O)N[C@@H](Cc1c[nH]cn1)C(=O)N[C@H](C(=O)N[C@@H](Cc1ccc(O)cc1)C(N)=O)[C@@H](C)O)C(C)C)[C@@H](C)O
notes: also called compound 60
B3: N^ε1-[(4S)-4-carboxy-4-(19-carboxynonadecanoylamino)butanoyl]-[Arg17,Pro21,Pro27,Lys35]-h-amylin (peptide)
peptide: K([γGlu-C20 diacid])CNTATCATQRLANFLRHSSPNFGAIPSSTNVGSKTY-NH2
modifications: disulfide 2-7; N-terminus assumed
SMILES: CC[C@H](C)[C@H](NC(=O)[C@H](C)NC(=O)CNC(=O)[C@H](Cc1ccccc1)NC(=O)[C@H](CC(N)=O)NC(=O)[C@@H]1CCCN1C(=O)[C@H](CO)NC(=O)[C@H](CO)NC(=O)[C@H](Cc1c[nH]cn1)NC(=O)[C@H](CCCNC(=N)N)NC(=O)[C@H](CC(C)C)NC(=O)[C@H](Cc1ccccc1)NC(=O)[C@H](CC(N)=O)NC(=O)[C@H](C)NC(=O)[C@H](CC(C)C)NC(=O)[C@H](CCCNC(=N)N)NC(=O)[C@H](CCC(N)=O)NC(=O)[C@@H](NC(=O)[C@H](C)NC(=O)[C@@H]1CSSC[C@H](NC(=O)[C@@H](N)CCCCNC(=O)CC[C@H](NC(=O)CCCCCCCCCCCCCCCCCCC(=O)O)C(=O)O)C(=O)N[C@@H](CC(N)=O)C(=O)N[C@@H]([C@@H](C)O)C(=O)N[C@@H](C)C(=O)N[C@@H]([C@@H](C)O)C(=O)N1)[C@@H](C)O)C(=O)N1CCC[C@H]1C(=O)N[C@@H](CO)C(=O)N[C@@H](CO)C(=O)N[C@H](C(=O)N[C@@H](CC(N)=O)C(=O)N[C@H](C(=O)NCC(=O)N[C@@H](CO)C(=O)N[C@@H](CCCCN)C(=O)N[C@H](C(=O)N[C@@H](Cc1ccc(O)cc1)C(N)=O)[C@@H](C)O)C(C)C)[C@@H](C)O
notes: also called compound 35
B4: N^ε1-[(4S)-4-carboxy-4-(19-carboxynonadecanoylamino)butanoyl]-[Glu14,Arg17,Pro21,Pro27,Arg35]-h-amylin (peptide)
peptide: K([γGlu-C20 diacid])CNTATCATQRLAEFLRHSSPNFGAIPSSTNVGSRTY-NH2
modifications: disulfide 2-7; N-terminus assumed
SMILES: CC[C@H](C)[C@H](NC(=O)[C@H](C)NC(=O)CNC(=O)[C@H](Cc1ccccc1)NC(=O)[C@H](CC(N)=O)NC(=O)[C@@H]1CCCN1C(=O)[C@H](CO)NC(=O)[C@H](CO)NC(=O)[C@H](Cc1c[nH]cn1)NC(=O)[C@H](CCCNC(=N)N)NC(=O)[C@H](CC(C)C)NC(=O)[C@H](Cc1ccccc1)NC(=O)[C@H](CCC(=O)O)NC(=O)[C@H](C)NC(=O)[C@H](CC(C)C)NC(=O)[C@H](CCCNC(=N)N)NC(=O)[C@H](CCC(N)=O)NC(=O)[C@@H](NC(=O)[C@H](C)NC(=O)[C@@H]1CSSC[C@H](NC(=O)[C@@H](N)CCCCNC(=O)CC[C@H](NC(=O)CCCCCCCCCCCCCCCCCCC(=O)O)C(=O)O)C(=O)N[C@@H](CC(N)=O)C(=O)N[C@@H]([C@@H](C)O)C(=O)N[C@@H](C)C(=O)N[C@@H]([C@@H](C)O)C(=O)N1)[C@@H](C)O)C(=O)N1CCC[C@H]1C(=O)N[C@@H](CO)C(=O)N[C@@H](CO)C(=O)N[C@H](C(=O)N[C@@H](CC(N)=O)C(=O)N[C@H](C(=O)NCC(=O)N[C@@H](CO)C(=O)N[C@@H](CCCNC(=N)N)C(=O)N[C@H](C(=O)N[C@@H](Cc1ccc(O)cc1)C(N)=O)[C@@H](C)O)C(C)C)[C@@H](C)O
notes: also called compound 51
B5: N^ε1-[(4S)-4-carboxy-4-(19-carboxynonadecanoylamino)butanoyl]-[His14,Arg17,Pro21,Pro27,His35]-h-amylin (peptide)
peptide: K([γGlu-C20 diacid])CNTATCATQRLAHFLRHSSPNFGAIPSSTNVGSHTY-NH2
modifications: disulfide 2-7; N-terminus assumed
SMILES: CC[C@H](C)[C@H](NC(=O)[C@H](C)NC(=O)CNC(=O)[C@H](Cc1ccccc1)NC(=O)[C@H](CC(N)=O)NC(=O)[C@@H]1CCCN1C(=O)[C@H](CO)NC(=O)[C@H](CO)NC(=O)[C@H](Cc1c[nH]cn1)NC(=O)[C@H](CCCNC(=N)N)NC(=O)[C@H](CC(C)C)NC(=O)[C@H](Cc1ccccc1)NC(=O)[C@H](Cc1c[nH]cn1)NC(=O)[C@H](C)NC(=O)[C@H](CC(C)C)NC(=O)[C@H](CCCNC(=N)N)NC(=O)[C@H](CCC(N)=O)NC(=O)[C@@H](NC(=O)[C@H](C)NC(=O)[C@@H]1CSSC[C@H](NC(=O)[C@@H](N)CCCCNC(=O)CC[C@H](NC(=O)CCCCCCCCCCCCCCCCCCC(=O)O)C(=O)O)C(=O)N[C@@H](CC(N)=O)C(=O)N[C@@H]([C@@H](C)O)C(=O)N[C@@H](C)C(=O)N[C@@H]([C@@H](C)O)C(=O)N1)[C@@H](C)O)C(=O)N1CCC[C@H]1C(=O)N[C@@H](CO)C(=O)N[C@@H](CO)C(=O)N[C@H](C(=O)N[C@@H](CC(N)=O)C(=O)N[C@H](C(=O)NCC(=O)N[C@@H](CO)C(=O)N[C@@H](Cc1c[nH]cn1)C(=O)N[C@H](C(=O)N[C@@H](Cc1ccc(O)cc1)C(N)=O)[C@@H](C)O)C(C)C)[C@@H](C)O
notes: also called compound 66
B6: N^ε1-[(4S)-4-carboxy-4-(19-carboxynonadecanoylamino)butanoyl]-[His14,Arg17,Pro21,Pro27,Pro31]-h-amylin (peptide)
peptide: K([γGlu-C20 diacid])CNTATCATQRLAHFLRHSSPNFGAIPSSTPVGSNTY-NH2
modifications: disulfide 2-7; N-terminus assumed
SMILES: CC[C@H](C)[C@H](NC(=O)[C@H](C)NC(=O)CNC(=O)[C@H](Cc1ccccc1)NC(=O)[C@H](CC(N)=O)NC(=O)[C@@H]1CCCN1C(=O)[C@H](CO)NC(=O)[C@H](CO)NC(=O)[C@H](Cc1c[nH]cn1)NC(=O)[C@H](CCCNC(=N)N)NC(=O)[C@H](CC(C)C)NC(=O)[C@H](Cc1ccccc1)NC(=O)[C@H](Cc1c[nH]cn1)NC(=O)[C@H](C)NC(=O)[C@H](CC(C)C)NC(=O)[C@H](CCCNC(=N)N)NC(=O)[C@H](CCC(N)=O)NC(=O)[C@@H](NC(=O)[C@H](C)NC(=O)[C@@H]1CSSC[C@H](NC(=O)[C@@H](N)CCCCNC(=O)CC[C@H](NC(=O)CCCCCCCCCCCCCCCCCCC(=O)O)C(=O)O)C(=O)N[C@@H](CC(N)=O)C(=O)N[C@@H]([C@@H](C)O)C(=O)N[C@@H](C)C(=O)N[C@@H]([C@@H](C)O)C(=O)N1)[C@@H](C)O)C(=O)N1CCC[C@H]1C(=O)N[C@@H](CO)C(=O)N[C@@H](CO)C(=O)N[C@H](C(=O)N1CCC[C@H]1C(=O)N[C@H](C(=O)NCC(=O)N[C@@H](CO)C(=O)N[C@@H](CC(N)=O)C(=O)N[C@H](C(=O)N[C@@H](Cc1ccc(O)cc1)C(N)=O)[C@@H](C)O)C(C)C)[C@@H](C)O
notes: also called compound 62

target: T1, human calcitonin receptor; assay: SPA competition with 125I-calcitonin, membranes of BHK hCTR cells (Assay VII)
Procedure, shortened: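 BHK hCTR membranes 35 ng/μL + SPA beads 0.05 mg/well; buffer 50 mM Hepes pH 7.4, 1 mM CaCl2, 5 mM MgCl₂, 0.1% OA, 0.02% Tween20. 120 min, 25° C., shaking. Scintillation count; IC50 by one-site binding competition.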

IC50 [nM] | Binder
34.5 | B1
31.4 | B2
48.8 | B3
31.1 | B4
18 | B5
6.17 | B6
